Measured values: patent US20180326005A1 (HEAT BIOLOGICS, published 2018)
Where two headings read alike, the source gives them in different places. Each block holds one molecule with its values, some of them ahead of it.

What was measured:
[1] = biological target: polyhistidine-tagged recombinant human CD47 (human) (UniProt Q08722); assay: SPR summary table, row group CD47
[2] = biological target: T1, human FcγR1A (human, UniProt P12314 16-288); assay: SPR summary table, row group FcγR1A
T1 construct: also called recombinant human FcγR1A

[3] = biological target: T2, neonatal receptor FcRn (human, UniProt P55899 24-297; P61769 21-119); assay: SPR summary table, row group FcRn
T2 construct: also called recombinant human FcRn

[4] = biological target: T3, polyhistidine-tagged recombinant human OX40 (human, UniProt P43489 29-216); assay: SPR summary table, row group OX40
T3 construct: also called recombinant OX40-his; hOX40-his; not shown: polyhistidine tag
T3 sequence (looked up): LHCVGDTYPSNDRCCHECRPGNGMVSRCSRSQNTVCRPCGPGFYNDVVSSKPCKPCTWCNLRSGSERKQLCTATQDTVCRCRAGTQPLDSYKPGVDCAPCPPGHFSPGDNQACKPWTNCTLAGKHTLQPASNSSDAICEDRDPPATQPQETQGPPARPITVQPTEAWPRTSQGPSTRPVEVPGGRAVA
Excerpt: (§1) Specifically, polyhistidine-tagged versions of recombinant human CD47 and human OX40 was bound to ProteOn HTG tris-NTA chips (BIORAD).

[5] = biological target: T3, polyhistidine-tagged recombinant human …; assay: SPR summary table, row group OX40; remark: listed apart in the source
Excerpt: (§2) Specifically, polyhistidine-tagged versions of recombinant human PD-L1, PD-L2 and human OX40 was bound to ProteOn HTG tris-NTA chips (BIORAD).

[6] = biological target: T3, polyhistidine-tagged recombinant human …; assay: SPR summary table, row group OX40; remark: listed apart in the source
Excerpt: as §2

[7] = biological target: human PD-L1 on cells (CHO-K1/hPD-L1, HCC827, PC3, HeLa-PD-L1) (human, UniProt Q9NZQ7 19-290); assay: cell-based or functional assay
[8] = biological target: T4, polyhistidine-tagged recombinant human PD-L2 (human, UniProt Q9BQ51 20-219); assay: SPR summary table, row group PD-L2
T4 construct: not shown: polyhistidine tag
T4 sequence (looked up): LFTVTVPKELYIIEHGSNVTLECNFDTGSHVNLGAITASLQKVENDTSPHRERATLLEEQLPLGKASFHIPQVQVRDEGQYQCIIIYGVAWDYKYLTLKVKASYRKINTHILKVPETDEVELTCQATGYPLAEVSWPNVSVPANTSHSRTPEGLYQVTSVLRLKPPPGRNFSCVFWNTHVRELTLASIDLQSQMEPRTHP
Excerpt: as §2

[9] = biological target: T2, neonatal receptor FcRn; assay: SPR summary table, row group FcRn; the text gives 73 nM for this pair
[10] = biological target: T1, human FcγR1A; assay: SPR, chip-bound human FcγR1A, analyte in flow
[11] = biological target: T5, polyhistidine-tagged recombinant human PD-L1 (human, UniProt Q9NZQ7 19-239); assay: SPR summary table, row group PD-L1
T5 construct: also called hPD-L1; not shown: polyhistidine tag
Excerpt: as §2

[12] = biological target: T6, FcγR2B (human, UniProt P31994 46-217, limits assumed); assay: SPR, chip-bound Fc receptor
T6 sequence (looked up): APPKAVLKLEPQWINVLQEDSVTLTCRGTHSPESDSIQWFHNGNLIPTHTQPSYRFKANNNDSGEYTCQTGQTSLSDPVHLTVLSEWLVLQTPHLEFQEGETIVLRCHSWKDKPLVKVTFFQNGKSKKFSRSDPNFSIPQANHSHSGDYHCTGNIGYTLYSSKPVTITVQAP

[13] = biological target: T2, neonatal receptor FcRn; assay: SPR, chip-bound Fc receptor
[14] = biological target: T4, polyhistidine-tagged recombinant human …; assay: SPR, his-tagged ligand on ProteOn HTG tris-NTA chip
Excerpt: as §2, §1

[15] = biological target: T5, polyhistidine-tagged recombinant human …; assay: as above
Excerpt: as §2, §1

[16] = biological target: T3, polyhistidine-tagged recombinant human …; assay: as above
Excerpt: as §2, §1

[17] = biological target: T7, mouse PD-1-Fc (mouse, UniProt Q02242 25-169; P01868 98-324 = IgG part, limits assumed); assay: ELISA: plate-bound mOX40-hFc, two-fold dilutions of CHO-K1 culture medium, detection with rabbit anti-mPD-1 and anti-rabbit IgG-HRP
T7 construct: extracellular domain;domain: Fc; Control construct, tested as CHO-K1 culture medium; also called mPD-1-Fc; recombinant mouse PD1-Fc
Excerpt: (§3) A rabbit polyclonal antibody to mPD-1 was used to detect the mPD-1 domain in the chimeric protein and subsequently detected using a horseradish peroxidase (HRP)-conjugated polyclonal antibody to rabbit IgG (H+L).
as §3, with “(H+L). […] A horseradish peroxidase (HRP)-conjugated polyclonal antibody to mouse IgG (H+L) was used for the detection of the bound proteins.” for “(H+L).”

[18] = biological target: T8, human OX40 on cells (Jurkat/hOX40, activated human T cells) (human, UniProt P43489 29-277); assay: flow cytometry, Jurkat-hOX40 against parental Jurkat cells, Fc-Fusions: PE-A
T8 construct: whole, on cells; also called Jurkat/OX40; cell surface expressed OX40
T8 sequence (looked up): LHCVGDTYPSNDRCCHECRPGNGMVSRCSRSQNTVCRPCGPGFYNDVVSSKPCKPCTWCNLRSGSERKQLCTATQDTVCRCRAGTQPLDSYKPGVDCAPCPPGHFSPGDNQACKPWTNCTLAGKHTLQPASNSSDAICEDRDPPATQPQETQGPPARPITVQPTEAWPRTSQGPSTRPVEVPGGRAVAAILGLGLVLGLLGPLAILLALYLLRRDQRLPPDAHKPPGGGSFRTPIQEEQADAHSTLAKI

polyhistidine-tagged recombinant human CD47 (human), sequence (Q08722 19-139 limits assumed): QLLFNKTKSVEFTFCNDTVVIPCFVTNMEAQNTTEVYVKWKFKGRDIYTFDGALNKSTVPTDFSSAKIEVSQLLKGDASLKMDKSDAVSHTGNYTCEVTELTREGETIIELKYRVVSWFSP
T5 sequence (Q9NZQ7 19-239 limits assumed): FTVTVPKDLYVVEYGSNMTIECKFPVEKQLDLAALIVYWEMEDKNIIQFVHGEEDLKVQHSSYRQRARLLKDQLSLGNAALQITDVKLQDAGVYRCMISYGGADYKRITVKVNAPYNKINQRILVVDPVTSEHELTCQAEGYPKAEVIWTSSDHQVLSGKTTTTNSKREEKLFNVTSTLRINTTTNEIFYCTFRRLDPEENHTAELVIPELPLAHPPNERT
T1 sequence (P12314 16-288 limits assumed): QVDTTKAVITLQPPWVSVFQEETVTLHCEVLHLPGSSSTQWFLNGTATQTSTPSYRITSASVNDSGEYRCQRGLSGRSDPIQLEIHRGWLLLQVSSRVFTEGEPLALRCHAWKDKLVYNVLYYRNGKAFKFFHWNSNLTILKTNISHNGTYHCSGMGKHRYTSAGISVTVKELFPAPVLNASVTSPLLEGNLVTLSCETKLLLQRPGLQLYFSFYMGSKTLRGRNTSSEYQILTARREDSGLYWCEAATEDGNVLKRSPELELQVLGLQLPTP
human PD-L1 on cells (CHO-K1/hPD-L1, HCC827, PC3, HeLa-PD-L1), sequence (Q9NZQ7 19-290): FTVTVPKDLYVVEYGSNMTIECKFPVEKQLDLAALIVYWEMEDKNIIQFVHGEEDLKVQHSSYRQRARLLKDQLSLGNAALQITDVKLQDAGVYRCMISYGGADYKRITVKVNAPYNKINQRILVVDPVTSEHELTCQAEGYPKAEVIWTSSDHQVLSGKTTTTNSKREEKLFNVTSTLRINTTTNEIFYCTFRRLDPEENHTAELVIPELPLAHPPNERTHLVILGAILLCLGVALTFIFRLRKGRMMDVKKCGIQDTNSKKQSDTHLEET
T7 sequence (Q02242 other isoform, or with tags, fused parts or gaps limits assumed): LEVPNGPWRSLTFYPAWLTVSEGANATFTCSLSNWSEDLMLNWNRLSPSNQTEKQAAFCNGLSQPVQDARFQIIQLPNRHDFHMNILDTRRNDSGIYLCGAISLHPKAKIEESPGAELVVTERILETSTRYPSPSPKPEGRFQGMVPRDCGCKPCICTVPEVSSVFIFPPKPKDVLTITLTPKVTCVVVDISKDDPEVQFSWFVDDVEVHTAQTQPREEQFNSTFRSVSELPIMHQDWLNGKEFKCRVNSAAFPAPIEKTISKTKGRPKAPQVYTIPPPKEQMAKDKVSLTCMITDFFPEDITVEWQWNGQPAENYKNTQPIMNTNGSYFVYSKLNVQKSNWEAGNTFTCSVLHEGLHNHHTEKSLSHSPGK

Kd [1]: 3.16 nM | koff [1]: 0.00239 s⁻¹ | kon [1]: 756000 M⁻¹ s⁻¹
Molecule: CD172a-Fc (Fc fusion)

Kd [2]: 17.7 nM | koff [2]: 0.00044 s⁻¹ | kon [2]: 24900 M⁻¹ s⁻¹ | Kd [3]: 4.87 nM | koff [3]: 0.0046 s⁻¹ | kon [3]: 945000 M⁻¹ s⁻¹
Molecule: human immunoglobulin IgG1 (antibody)

Kd [4]: 9.28 nM | koff [4]: 0.00069 s⁻¹ | Kd [5]: 9.28 nM | koff [5]: 0.00069 s⁻¹ | Kd [6]: 9.28 nM | koff [6]: 0.00069 s⁻¹
B1: recombinant human OX40L-Fc (Fc fusion, UniProt P23510 51-183, looked up)
chain: QVSHRYPRIQSIKVQFTEYKKEKGFILTSQKEDEIMKVQNNSVIINCDGFYLISLKGYFSQEVNISLHYQKDEEPLFQLKKVRSVNSLMVASLTYKDKVYLNVTTDNTSLDDFHVNGGELILIHQNPGEFCVL
notes: Positive control in SPR; not shown: Fc

increase in IL-2 from baseline (no SL-279252) to 5 ug/mL of SL-279252, T cell co-culture with HCC827 (PD-L1high) [7]: 1.92 fold | increase in IL-2 from baseline (no SL-279252) to 5 ug/mL of SL-279252, T cell co-culture with PC3 (PD-L1low) [7]: 1.27 fold | koff [8]: 6.7e-05 s⁻¹ | kon [8]: 54000 M⁻¹ s⁻¹ | Kd [9]: 9.17 nM | binding result [10]: no binding (tested: 500 nM) | koff [3]: 0.00234 s⁻¹ | kon [3]: 255000 M⁻¹ s⁻¹ | koff [5]: 1.9e-05 s⁻¹ | kon [5]: 77300 M⁻¹ s⁻¹ | koff [11]: 0.000176 s⁻¹ | kon [11]: 84500 M⁻¹ s⁻¹ | binding result [12]: no binding | Kd [13]: 73 nM | Kd [14]: 1.24 nM | Kd [15]: 2.08 nM | off-rate, fold slower than recombinant PD-1-Fc [15]: ~20 fold | Kd [16]: 0.246 nM
B2: SL-279252 (human PD-1-Fc-OX40L) (Fc fusion)
chain: LDSPDRPWNPPTFSPALLVVTEGDNATFTCSFSNTSESFVLNWYRMSPSNQTDKLAAFPEDRSQPGQDCRFRVTQLPNGRDFHMSVVRARRNDSGTYLCGAISLAPKAQIKESLRAELRVTERRAEVPTAHPSPSPRPAGQFQSKYGPPCPSCPAPEFLGGPSVFLFPPKPKDTLMISRTPEVTCVVVDVSQEDPEVQFNWYVDGVEVHNAKTKPREEQFNSTYRVVSVLTVLHQDWLSGKEYKCKVSSKGLPSSIEKTISNATGQPREPQVYTLPPSQEEMTKNQVSLTCLVKGFYPSDIAVEWESNGQPENNYKTTPPVLDSDGSFFLYSRLTVDKSSWQEGNVFSCSVMHEALHNHYTQKSLSLSLGKIEGRMDQVSHRYPRIQSIKVQFTEYKKEKGFILTSQKEDEIMKVQNNSVIINCDGFYLISLKGYFSQEVNISLHYQKDEEPLFQLKKVRSVNSLMVASLTYKDKVYLNVTTDNTSLDDFHVNGGELILIHQNPGEFCVL
notes: Glycosylated; about 50% of the non-reduced protein ran as a dimer; also called hPD-1-Fc-OX40L

B3: recombinant mOX40 fused to human Fc (Fc fusion, mouse, UniProt P47741 20-211, looked up)
chain: VTARRLNCVKHTYPSGHKCCRECQPGHGMVSRCDHTRDTLCHPCETGFYNEAVNYDTCKQCTQCNHRSGSELKQNCTPTQDTVCRCRPGTQPRQDSGYKLGVDCVPCPPGHFSPGNNQACKPWTNCTLSGKQTRHPASDSLDAVCEDRSLLATLLWETQRPTFRPTTVQSTTVWPRTSELPSPPTLVTPEGP
notes: also called mOX40-hFc; not shown: human Fc
binding result [17]: no binding (tested: 1:1 (undiluted culture medium))

binding result [18]: no binding
B4: human PD1-Fc-TL1A (Fc fusion)
chain: LDSPDRPWNPPTFSPALLVVTEGDNATFTCSFSNTSESFVLNWYRMSPSNQTDKLAAFPEDRSQPGQDCRFRVTQLPNGRDFHMSVVRARRNDSGTYLCGAISLAPKAQIKESLRAELRVTERRAEVPTAHPSPSPRPAGQFQSKYGPPCPSCPAPEFLGGPSVFLFPPKPKDTLMISRTPEVTCVVVDVSQEDPEVQFNWYVDGVEVHNAKTKPREEQFNSTYRVVSVLTVLHQDWLSGKEYKCKVSSKGLPSSIEKTISNATGQPREPQVYTLPPSQEEMTKNQVSLTCLVKGFYPSDIAVEWESNGQPENNYKTTPPVLDSDGSFFLYSRLTVDKSSWQEGNVFSCSVMHEALHNHYTQKSLSLSLGKIEGRMDRAQGEACVQFQALKGQEFAPSHQQVYAPLRADGDKPRAHLTVVRQTPTQHFKNQFPALHWEHELGLAFTKNRMNYTNKFLLIPESGDYFIYSQVTFRGMTSECSEIRQAGRPNKPDSITVVITKVTDSYPEPTQLLMGTKSVCEVGSNWFQPIYLGAMFSLQEGDKLMVNVSDISLVDYTKEDKTFFGAFLL
notes: The entry includes the native leader; no cleavage site is stated; also called hPD1-Fc-TL1A
